The FLAb antibody collection (doi:10.7554/elife.23156)

B1: scFv; the commonest letter at each place (parent)
chain 1: EVKLDETGGGLVQPGRPMKLSCVASGFTFSDYWMNWVRQSPEKGLEWVAQIRNKPYNYETYYSDSVKGRFTISRDDSKSSVYLQMNNLRVEDMGIYYCTGSYYGMDYWGQGTSVTVS
chain 2: DVVMTQTPLSLPVSLGDQASISCRSSQSLVHSNGNTYLRWYLQKPGQSPKVLIYKVSNRFSGVPDRFSGSGSGTDFTLKISRVEAEDLGVYFCSQSTHVPWTFGGGTKLEIK

Assays:
fluorescein = variants of: B1; test: Kd (Tite-Seq); conditions: with fluorescein; format: scFv 4-4-20, heavy + light
[1] = variants of: B1; test: yeast surface expression (ratio to wild type); higher = more expressed; conditions: format: scFv 4-4-20, heavy + light

Kd (fluorescein) [µM]	Variant	yeast surface expression [1]
≥ 10	chain 1 W33D M34Q	0.754
≥ 10	chain 1 Y102K Y103L G104F	0.545
0.00343	chain 1 G100C D106N	0.768
≥ 10	chain 1 M105D Y107D	0.442
≥ 10	chain 1 M34W W36T	0.686
≥ 10	chain 1 S30I D31H W33C	0.449
≥ 10	chain 1 S101N Y103L	0.964
≥ 10	chain 1 G100L G109V	0.253
≥ 10	chain 1 M34E W36M	0.428
0.00871	chain 1 T28D F29Y	0.975
0.00128	chain 1 T28I D31H	0.699
≥ 10	chain 1 S30F N35H	0.53
0.00175	chain 1 S30M	0.855
0.00205	chain 1 S30F	0.828
0.00128	chain 1 S30C	0.906
≥ 10	chain 1 D31S W36I	0.724
0.61	chain 1 M105R D106N	0.717
≥ 10	chain 1 G100I S101E	0.652
≥ 10	chain 1 N35K W36F	0.453
0.0353	chain 1 T28V M34S	0.593
≥ 10	chain 1 N35W V37Q	0.372
0.228	chain 1 F29I S30R D31E	0.688
≥ 10	chain 1 G100L G104S	0.51
0.0189	chain 1 F29T D31N	1.01

Kd (fluorescein) [µM]	Variant	yeast surface expression [1]
≥ 10	chain 1 S101C G104V D106F	0.361
8.13	chain 1 D31E Y32M	0.789
0.676	chain 1 F29I S30L	0.564
≥ 10	chain 1 S101A Y107E W108G	0.353
≥ 10	chain 1 D106T G109R	0.26
≥ 10	chain 1 M34L V37T	0.546
0.0657	chain 1 M34C N35L V37F	0.501
≥ 10	chain 1 D106R G109H	0.486
0.0507	chain 1 S30F Y32H	0.679
≥ 10	chain 1 G100Q G109M	0.223
0.00175	chain 1 S101A Y107S	0.854
≥ 10	chain 1 Y103C G104C	0.223
0.0221	chain 1 Y103G Y107W	1.21
0.0221	chain 1 Y103E W108C	0.758
0.0146	chain 1 Y102F M105R	1.2
0.923	chain 1 Y102K Y107R	0.991
≥ 10	chain 1 G100Y G104C	0.183
≥ 10	chain 1 N35V V37Y	0.727
0.0154	chain 1 T28P M34S	0.95
≥ 10	chain 1 D31M Y32V	0.528
≥ 10	chain 1 Y102K Y103A D106W	0.439
≥ 10	chain 1 Y102H M105T	0.972
4.37	chain 1 F29Y M34Q V37M	0.485
≥ 10	chain 1 W33Q N35W	1.01

Kd (fluorescein) [µM]	Variant	yeast surface expression [1]
≥ 10	chain 1 W33V	0.944
≥ 10	chain 1 W33K	0.699
0.0412	chain 1 W33F	0.902
≥ 10	chain 1 Y102W G109P	0.245
≥ 10	chain 1 D31W W33L N35I	0.49
≥ 10	chain 1 S101K D106M	0.229
≥ 10	chain 1 S30D V37P	0.55
≥ 10	chain 1 F29C W33Q	0.687
≥ 10	chain 1 Y102Q G109D	0.485
≥ 10	chain 1 S101G M105E D106R	0.604
0.00158	chain 1 S30Q D31H	0.881
≥ 10	chain 1 F29M D31Y W33Q	0.811
≥ 10	chain 1 S101I G104T	0.4
≥ 10	chain 1 S101F W108K	0.217
≥ 10	chain 1 G100T Y102N	0.932
≥ 10	chain 1 D31R W33S M34P	0.182
≥ 10	chain 1 S101R G109M	0.251
≥ 10	chain 1 S101Y Y103G	0.935
≥ 10	chain 1 Y102H G109P	0.281
≥ 10	chain 1 D31H N35A W36R	2.27
≥ 10	chain 1 S101F M105L	0.483
5.37	chain 1 G100S M105W	0.758
≥ 10	chain 1 G100T S101N G104K	0.565
0.00115	chain 1 S30A M34L	1.1

Kd (fluorescein) [µM]	Variant	yeast surface expression [1]
≥ 10	chain 1 G104C	0.578
≥ 10	chain 1 F29W M34W	0.913
0.75	chain 1 Y102Q M105Y	0.947
0.15	chain 1 G100W W108V	0.251
≥ 10	chain 1 S101Q D106N	0.555
≥ 10	chain 1 Y103L M105C	1
≥ 10	chain 1 Y103L M105I	0.741
≥ 10	chain 1 S30P W33P	0.628
≥ 10	chain 1 Y103Q D106M	0.805
≥ 10	chain 1 S101M Y103G	0.868
≥ 10	chain 1 W36D V37M	1.25
1.02	chain 1 T28S W33F	0.903
≥ 10	chain 1 F29E D31G N35R	0.621
≥ 10	chain 1 Y102L D106W	0.238
≥ 10	chain 1 D106W G109V	0.0997
≥ 10	chain 1 S30Y M34H	0.38
≥ 10	chain 1 F29Y Y32S	0.95
1.63	chain 1 F29N M34H	0.665
≥ 10	chain 1 M34G N35H	0.394
≥ 10	chain 1 G104H Y107M	0.478
0.00128	chain 1 T28V	1
≥ 10	chain 1 M105S D106E	1.32
6.96	chain 1 M105S D106S	0.843
0.0038	chain 1 Y102A D106S	1.06

Kd (fluorescein) [µM]	Variant	yeast surface expression [1]
≥ 10	chain 1 S101F	0.596
≥ 10	chain 1 S101E	0.838
0.021	chain 1 M105R	1
0.00546	chain 1 M105K	1.02
≥ 10	chain 1 M105H	1.06
0.945	chain 1 M105F	0.745
4.25	chain 1 M105V	0.993
0.0199	chain 1 Y103Q	1.33
0.0318	chain 1 Y103S	1.05
≥ 10	chain 1 S101M G109W	0.231
≥ 10	chain 1 S101M G109H	0.229
≥ 10	chain 1 G100N Y102N	0.643
≥ 10	chain 1 S30A W33N	0.914
0.712	chain 1 Y103Q W108A	0.644
7.33	chain 1 M105R W108A	0.498
≥ 10	chain 1 M34K N35S	1.46
≥ 10	chain 1 S101L G109I	0.297
≥ 10	chain 1 D31Q W33T	0.793
≥ 10	chain 1 W36F V37Y	0.738
≥ 10	chain 1 S30A W36H	0.457
